According to publication PMC4286236:

Assays:
Assay in all cases: AraTM assay
[1] = target: Danio rerio PlxnA3 TM + JM (amino acids 1241-1314) V1288F, AraTM construct (EP-PCR mutant); settings: E. coli membranes; four replicates; read off a plot
[2] = target: Danio rerio PlxnA3 TM + JM (amino acids 1241-1314) D1302Y, AraTM construct (EP-PCR mutant); settings: E. coli membranes; four replicates; read off a plot
[3] = target: Danio rerio PlxnA3 TM + JM (amino acids 1241-1314) L1274A, AraTM construct; settings: E. coli membranes; minimum of eleven replicates over three experiments; read off a plot
[4] = target: Danio rerio PlxnA3 TM + JM (amino acids 1241-1314) M1281F, AraTM construct; settings: E. coli membranes; minimum of eleven replicates over three experiments; read off a plot
[5] = target: Danio rerio PlxnA3 TM + JM (amino acids 1241-1314) L1284A, AraTM construct; settings: E. coli membranes; minimum of eleven replicates over three experiments; read off a plot
[6] = target: Danio rerio PlxnA3 TM + JM (amino acids 1241-1314) M1281L, AraTM construct; settings: E. coli membranes; minimum of eleven replicates over three experiments; read off a plot
[7] = target: Danio rerio PlxnA3 TM + JM (amino acids 1241-1314) L1277F, AraTM construct; settings: E. coli membranes; minimum of eleven replicates over three experiments; read off a plot
[8] = target: Danio rerio PlxnA3 TM + JM (amino acids 1241-1314) M1281T, AraTM construct; settings: E. coli membranes; minimum of eleven replicates over three experiments; read off a plot

Danio rerio PlxnA3 TM + JM (amino acids 1241-1314), wild type, AraTM construct V1288F
other: % change in AraTM fluorescence/absorbance from WT (% change from WT) [1]: 25

Danio rerio PlxnA3 TM + JM (amino acids 1241-1314), wild type, AraTM construct D1302Y
other: % change in AraTM fluorescence/absorbance from WT (% change from WT) [2]: 85

Danio rerio PlxnA3 TM + JM (amino acids 1241-1314), wild type, AraTM construct L1274A
other: % change in AraTM fluorescence/absorbance from WT (% change from WT) [3]: -1

Danio rerio PlxnA3 TM + JM (amino acids 1241-1314), wild type, AraTM construct M1281F
other: % change in AraTM fluorescence/absorbance from WT (% change from WT) [4]: -7.2

Danio rerio PlxnA3 TM + JM (amino acids 1241-1314), wild type, AraTM construct L1284A
other: % change in AraTM fluorescence/absorbance from WT (% change from WT) [5]: -7.6

Danio rerio PlxnA3 TM + JM (amino acids 1241-1314), wild type, AraTM construct M1281L
other: % change in AraTM fluorescence/absorbance from WT (% change from WT) [6]: 23

Danio rerio PlxnA3 TM + JM (amino acids 1241-1314), wild type, AraTM construct L1277F
other: % change in AraTM fluorescence/absorbance from WT (% change from WT) [7]: -2.3

Danio rerio PlxnA3 TM + JM (amino acids 1241-1314), wild type, AraTM construct M1281T
other: % change in AraTM fluorescence/absorbance from WT (% change from WT) [8]: -12
